## γ-PAK activated by limited digestion with trypsin
AAKRSAA
  32P incorporated, proteolytically activated (pmol min^-1 µg^-1): 0
  rel rate (%), proteolytically activated (KKRKSAA = 100): 0%
AKRASEA
  32P incorporated, proteolytically activated (pmol min^-1 µg^-1): 326
  rate of phosphorylation relative to AKRASAA: a glutamate residue in the +1 position decreased the rate to 71%
  rel rate (%), proteolytically activated (KKRKSAA = 100): 108%
KKRKSAA
  32P incorporated, proteolytically activated (pmol min^-1 µg^-1): 302
  rel rate (%), proteolytically activated (KKRKSAA = 100): 100%
AARASAA
  32P incorporated, proteolytically activated (pmol min^-1 µg^-1): 169
  rate of phosphorylation relative to AKRASAA: significantly slower rate (40 and 56%) as compared to AKRASAA (SEQ ID NO:6) and KKRKSAA (SEQ ID NO:8), respectively
  rel rate (%), proteolytically activated (KKRKSAA = 100): 56%
AKRASPA
  32P incorporated, proteolytically activated (pmol min^-1 µg^-1): 0
  rel rate (%), proteolytically activated (KKRKSAA = 100): 0%
AAAASKR
  32P incorporated, proteolytically activated (pmol min^-1 µg^-1): 0
  rel rate (%), proteolytically activated (KKRKSAA = 100): 0%
AAKKSAA
  32P incorporated, proteolytically activated (pmol min^-1 µg^-1): 0
  rel rate (%), proteolytically activated (KKRKSAA = 100): 0%
ARRASAA
  32P incorporated, proteolytically activated (pmol min^-1 µg^-1): 391
  rel rate (%), proteolytically activated (KKRKSAA = 100): 129%
AKRESAA
  32P incorporated, proteolytically activated (pmol min^-1 µg^-1): 750
  rate of phosphorylation relative to AKRASAA: increased the rate of phosphorylation relative to AKRASAA (SEQ ID NO:6) to 175 and 113%, respectively
  rel rate (%), proteolytically activated (KKRKSAA = 100): 247%
AKRASGA
  32P incorporated, proteolytically activated (pmol min^-1 µg^-1): 324
  rel rate (%), proteolytically activated (KKRKSAA = 100): 107%
AKRPSAA
  32P incorporated, proteolytically activated (pmol min^-1 µg^-1): 16
  rel rate (%), proteolytically activated (KKRKSAA = 100): 6%
ARKASAA
  32P incorporated, proteolytically activated (pmol min^-1 µg^-1): 16
  rel rate (%), proteolytically activated (KKRKSAA = 100): 6%
RKKKSAA
  32P incorporated, proteolytically activated (pmol min^-1 µg^-1): 0
  rel rate (%), proteolytically activated (KKRKSAA = 100): 0%
PKRASAA
  32P incorporated, proteolytically activated (pmol min^-1 µg^-1): 636
  rel rate (%), proteolytically activated (KKRKSAA = 100): 209%
EKRASAA
  32P incorporated, proteolytically activated (pmol min^-1 µg^-1): 484
  rate of phosphorylation relative to AKRASAA: increased the rate of phosphorylation relative to AKRASAA (SEQ ID NO:6) to 175 and 113%, respectively
  rel rate (%), proteolytically activated (KKRKSAA = 100): 160%
KKAASAA
  32P incorporated, proteolytically activated (pmol min^-1 µg^-1): 0
  rel rate (%), proteolytically activated (KKRKSAA = 100): 0%
AKRGSAA
  32P incorporated, proteolytically activated (pmol min^-1 µg^-1): 381
  rel rate (%), proteolytically activated (KKRKSAA = 100): 126%
KKRASAA
  32P incorporated, proteolytically activated (pmol min^-1 µg^-1): 586
  rel rate (%), proteolytically activated (KKRKSAA = 100): 193%
AKRKSAA
  32P incorporated, proteolytically activated (pmol min^-1 µg^-1): 548
  rel rate (%), proteolytically activated (KKRKSAA = 100): 181%
AKAASAA
  32P incorporated, proteolytically activated (pmol min^-1 µg^-1): 5
  rel rate (%), proteolytically activated (KKRKSAA = 100): 2%
AKRASAA
  32P incorporated, proteolytically activated (pmol min^-1 µg^-1): 426
  rel rate (%), proteolytically activated (KKRKSAA = 100): 141%

From patent US20030088057
